What was measured:
[1] = test system: mouse primary cortical neurons; assay: Neurite growth of primary cortical neurons (beta-tubulin III immunostaining); assay type: cell-based; details: FB peptides; treated for two days, assessed at day 3
Experimental: Next, primary cortical neurons (day 1 postnatal) were cultured in vitro with varying concentrations (0.006 to 60 nM) of the LRRC4B (453-576) protein fragment (i.e., amino acid residues 453-576 of SEQ ID NO: 2; SEQ ID NO: 7), and then at day 3 post-initial culture, the effect on neurite growth was assessed by immunostaining the cells with anti-beta-tubulin III antibody. Cells cultured with DMSO (“Veh”) were used as control.
Mouse hippocampal neurons were treated with LRRC4B peptides at 1 and 2 DIV to determine neurite growth. It was measured by using 3 different parameters, which are total neurites length, number of primary and secondary neurites. After the neurons were stained with beta-tubulin III at 3 DIV, neurites length and branch points were measured using Fiji (Image J, NIH, Bethesda). Individual neurons were selected by hand and these parameters were counted using the Simple neurite tracer plugin. Mouse spinal motor neurons sampled at postnatal day 1 were treated with 10 nM of NS101 and LRRC4B-peptides (dFB-dWY-JM31 and dFB-DY-JM31) at 1 and 2 DIV and immunostained with Tau-5 antibody at 3 DIV. Total neurite length and number of somas in images were measured by Neurphology Image J plugin.

FAM19A5 protein [2] = target: T1, FAM19A5 protein (Homo sapiens, UniProt Q7Z5A7); assay: ELISA binding of recombinant FAM19A5 to coated LRRC4 family ectodomains, fragments and FB peptides; details: coated protein or peptide, FAM19A5 up to 10 nM
T1 sequence (Q7Z5A7 44-132): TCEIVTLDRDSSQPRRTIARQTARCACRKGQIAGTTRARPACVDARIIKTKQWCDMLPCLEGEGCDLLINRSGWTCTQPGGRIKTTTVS
Experimental: Next, to confirm the above co-immunoprecipitation results, an ELISA assay was used to measure the binding of the FAM19A5 protein to either the full-length ectodomain of members of LRRC4 protein family or various LRRC4B ectodomain protein fragments. Specifically, an ELISA plate was coated with one of the following LRRC4B ectodomain protein, which was conjugated to human Fc (100 nM/well): (1) full-length ectodomain of LRRC4 protein (amino acid residues 39-527 of SEQ ID NO: 1) (SEQ ID NO: 4); (2) full-length ectodomain of LRRC4B protein (amino acids 36-576 of SEQ ID NO: 2; i.e., construct #7 in Table 6) (SEQ ID NO: 5); (3) full-length ectodomain of LRRC4C protein (amino acids 45-527 of SEQ ID NO: 3) (SEQ ID NO: 6); (4) LRRC4B ectodomain fragment (amino acids 453-576 of SEQ ID NO: 2; i.e., construct #11 in Table 6) (SEQ ID NO: 7); (5) LRRC4B ectodomain fragment (amino acids 484-576 of SEQ ID NO: 2; i.e., construct #12 in Table 6) (SEQ ID NO: 8); (6) LRRC4B ectodomain fragment (amino acids 482-576 of SEQ ID NO: 2) (SEQ ID NO: 9); (7) LRRC4B ectodomain fragment (amino acids 482-497 of SEQ ID NO: 2) (SEQ ID NO: 10); and (8) LRRC4B ectodomain fragment (amino acids 498-576 of SEQ ID NO: 2; i.e., construct #13 in Table 6) (SEQ ID NO: 11). Then, recombinant FAM19A5 proteins (0.005, 0.01, 0.025, 0.05, 0.1, 0.25, 0.5, 1, 2.5, 5, and 10 nM) were added to the relevant wells, and the plates were incubated at 37° C. for 1 hour. Afterwards, the amount of LRRC4B-bound FAM19A5 protein was detected using […] anti-FAM19A5 (1-65) antibody.
As further confirmation, three synthetic polypeptides comprising amino acids 484-497 of SEQ ID NO: 2 (i.e., YTYFTTVTVETLET; SEQ ID NO: 65) were constructed: (1) FB-16 (GYTYFTTVTVETLETQ; SEQ ID NO: 17), (2) FB-20 ([…]; SEQ ID NO: 18), and (3) FB-28 ([…]; SEQ ID NO: 19). The peptides differed in their total length. The ability of these polypeptides to bind to recombinant FAM19A5 protein was assessed using an ELISA assay as described above.

[3] = target: binding of FAM19A5 protein to full-length ectodomain of the LRRC4B protein (amino acids 36-576)-hFc (Homo sapiens, UniProt Q7Z5A7); assay: Competitive inhibition assay, plate coated with full-length LRRC4B ectodomain; details: 100 nM coated ectodomain; FAM19A5 5 ng/mL; increasing concentrations
binding of FAM19A5 protein to full-length ectodomain of the LRRC4B protein (amino acids 36-576)-hFc, sequence (Q7Z5A7 44-132): as above
Experimental: Next, to further assess the role that the binding domain of the LRRC4B protein has on the interaction between FAM19A5 protein and members of the LRRC4 protein family, a competitive inhibition assay was used to determine whether different LRRC4B deletion constructs from Example 2 could inhibit the binding of FAM19A5 to the full-length ectodomain of the LRRC4B protein (i.e., amino acids 36-576 of SEQ ID NO: 2; SEQ ID NO: 5). Briefly, 100 nM of the full-length ectodomain of the LRRC4B protein was used to coat a plate, and then recombinant FAM19A5 protein (5 ng/mL) was added to the plate in combination with the following LRRC4B deletion constructs (increasing concentrations): (1) LRRC4B (453-576) (i.e., construct #11 in Table 6); (2) LRRC4B (453-576) mutant (comprises alanine substitutions at positions 488 and 489 of SEQ ID NO: 2; SEQ ID NO: 16); (3) LRRC4B (484-576) (i.e., construct #12 in Table 6); (4) LRRC4B (482-576); (5) LRRC4B (482-497); and (6) LRRC4B (498-576). The plates were incubated at 37° C., and then, the amount of FAM19A5 bound to the coated LRRC4B ectodomain protein was measured using H1RP-conjugated anti-FAM19A5 (1-65) antibody. […]

[4] = target: binding of FAM19A5 protein to full-length ectodomain of LRRC4C protein (Homo sapiens, UniProt Q7Z5A7); assay: Competitive inhibition assay, plate coated with full-length LRRC4C ectodomain; details: 100 nM/well coated full-length LRRC4C ectodomain; FAM19A5 5 ng/mL
binding of FAM19A5 protein to full-length ectodomain of LRRC4C protein, sequence (Q7Z5A7 44-132): as above
Experimental: (§1) As described in Example 3, there appeared to be much similarity in the binding domains of the different members of the LRRC4 family. […] Then, recombinant FAM19A5 protein (5 ng/mL) was added in combination with one of the following: (i) LRRC4B (484-576) protein fragment, (ii) LRRC4B (453-576, AA) protein fragment, and (iii) synthetic FB-20 peptide. The plates were incubated at 37° C., and then, the amount of FAM19A5 protein bound to the coated LRRC4, LRRC4B, or LRRC4C proteins was measured using anti-FAM19A5 (1-65) antibody.

[5] = target: binding of FAM19A5 protein to full-length ectodomain of LRRC4 protein (Homo sapiens, UniProt Q7Z5A7); assay: Competitive inhibition assay, plate coated with full-length LRRC4 ectodomain; details: 100 nM/well coated full-length LRRC4 ectodomain; FAM19A5 5 ng/mL
binding of FAM19A5 protein to full-length ectodomain of LRRC4 protein, sequence (Q7Z5A7 44-132): as above
Experimental: as §1

FAM19A5 protein [6] = target: T1, FAM19A5 protein; assay: Co-immunoprecipitation of FLAG-tagged LRRC4 family constructs with recombinant FAM19A5 in HEK293 cells; assay type: binding; details: HEK293 cells expressing FLAG-tagged construct, recombinant FAM19A5 protein (1 μM) 30 minutes; anti-FLAG immunoprecipitation
Experimental: To better understand the interaction between FAM19A5 and members of the LRRC4 protein family, HEK293 cells were modified to express a FLAG-tagged member of the LRRC4 protein family, i.e., LRRC4C protein, LRRC4 protein, or LRRC4B protein. Then, the HEK293 cells or primary cortical neurons were treated with recombinant FAM19A5 protein (1 μM) for 30 minutes, and the binding between FAM19A5 protein and the different members of the LRRC4 protein family was assessed using both co-immunoprecipitation and immunofluorescence assays.
For the co-immunoprecipitation assay, cell lysates from the different FAM19A5-treated HEK293 cells were collected and immunoprecipitated with an anti-FLAG antibody, anti-FAM19A5 (1-65) antibody, or a human IgG antibody (control). Immunoprecipitated proteins were immunoblotted with anti-FLAG and anti-FAM19A5 (3-2) antibodies. For the immunofluorescence assay, the HEK293 cells treated with the recombinant FAM19A5 protein were immunostained with anti-FAM19A5 (3-2) (to detect FAM19A5 protein expression) and anti-FLAG antibodies (to detect member of the LRRC4 protein family). The primary cortical neurons treated with the recombinant FAM19A5 protein were immunostained with anti-FAM19A5 (3-2) and anti-LRRC4B antibodies. The nuclei were stained with Hoechst33342 (blue).
To determine the specific motif or domain of the LRRC4B protein that is responsible for the binding to a FAM19A5 protein, various FLAG-tagged LRRC4B deletion constructs were generated (see Table 6 below). HEK293 cells were transfected with the different deletion constructs and then treated with recombinant FAM19A5 protein as described in Example 1. Then, the cell lysates from the different HEK293 cells were immunoprecipitated with the anti-FLAG antibody. The immunoprecipitated proteins were immunoblotted with anti-FLAG and anti-FAM19A5 (3-2) antibodies.
As described in Example 2, all members of the LRRC4 protein family were capable of binding to FAM19A5 protein to varying degrees. Therefore, to compare the bindings domains, the amino acid sequences of the LRRC4B, LRRC4, and LRRC4C proteins were aligned. […] Therefore, to assess whether the corresponding positions of LRRC4 and LRRC4C were important in the binding of these proteins to FAM19A5 protein, cDNAs encoding either (i) LRRC4C protein fragment (amino acids 354-527 of SEQ ID NO: 3; SEQ ID NO: 66) or (ii) LRRC4 protein fragment (amino acids 353-527 of SEQ ID NO: 1; SEQ ID NO: 67) were constructed (see Table 7). HEK293 cells were transfected to express either of the protein fragments and then treated with recombinant FAM19A5 protein as described in Example 1. Then, the cell lysates from the different HEK293 cells were immunoprecipitated with the anti-FLAG antibody. The immunoprecipitated proteins were immunoblotted with anti-FLAG and anti-FAM19A5 (3-2) antibodies.

Row | Molecule | neurite outgrowth [1] | binding to FAM19A5 protein (ELISA) (FAM19A5 protein [2]) | inhibition of FAM19A5 binding to coated full-length LRRC4B ectodomain protein [3] | inhibition of FAM19A5 binding to coated LRRC4C protein [4] | inhibition of FAM19A5 binding to coated LRRC4 protein [5] | binding to FAM19A5 protein (co-immunoprecipitation) (FAM19A5 protein [6])
1 | GYTYFTTVTVETLETQ [FB-16] | Increased neurite outgrowth | high affinity |  |  |  | 
2 | LRRC4B (482-497): LRRC4B ectodomain fragment, amino acids 482-497 of SEQ ID NO: 2 (SEQ ID NO: 10) (GGYTYFTTVTVETLET; left off: a dimerising Fc or GST) |  |  | able to inhibit the interaction |  |  | 
3 | GYTYFTTVTVETLETQPGEKEPPGPTTD [FB-28] | Increased neurite outgrowth | high affinity |  |  |  | 
4 | GYTYFTTVTVETLETQPGEE [FB-20] | Increased neurite outgrowth | high affinity |  | able to inhibit FAM19A5 protein from binding | able to inhibit FAM19A5 protein from binding | 
5 | LRRC4B (484-576): LRRC4B fragment, amino acids 484-576 of SEQ ID NO: 2 (SEQ ID NO: 8) (protein) YTYFTTVTVETLETQPGEEALQPRGTEKEPPGPTTDGVWGGGRPGDAAGPASSSTTAPAPRSSRPTEKAFTVPITDVTENALKDLDDVMKTTK |  |  | able to inhibit the interaction | able to inhibit FAM19A5 protein from binding | able to inhibit FAM19A5 protein from binding | able to bind to the FAM19A5 protein
6 | LRRC4B (498-576): LRRC4B fragment, amino acids 498-576 of SEQ ID NO: 2 (SEQ ID NO: 11) (protein) QPGEEALQPRGTEKEPPGPTTDGVWGGGRPGDAAGPASSSTTAPAPRSSRPTEKAFTVPITDVTENALKDLDDVMKTTK |  | failed to bind to FAM19A5 | much inferior in their ability to inhibit the interaction |  |  | 
7 | LRRC4B (482-576): LRRC4B ectodomain fragment, amino acids 482-576 of SEQ ID NO: 2 (SEQ ID NO: 9) (protein) GGYTYFTTVTVETLETQPGEEALQPRGTEKEPPGPTTDGVWGGGRPGDAAGPASSSTTAPAPRSSRPTEKAFTVPITDVTENALKDLDDVMKTTK |  |  | able to inhibit the interaction |  |  | 

Source: US20250333441A1, “POLYPEPTIDE INHIBITORS AND USES THEREOF” (Neuracle Science Co., Ltd., priority 2021, published 2025)
